Results taken from publication PMC3701909, “Direct single molecule measurement of TCR triggering by agonist pMHC in living primary T cells” (eLife, 2013).

Tests used:
[1] = target: MCC agonist pMHC: MHC class II I-E^k loaded with MCC(C) peptide labelled with Atto647N (not stated | moth) (UniProt P04230); assay: two-color single molecule fluorescence tracking (TIRF); agonist pMHC (MCC-Atto647N) on a supported lipid bilayer; live T cells expressing ZAP70-EGFP; 1 frame/s, 500 ms integration; pair pMHC and TCR
[2] = target: MCC agonist pMHC: MHC class II I-E^k loaded with MCC(C) peptide labelled with Atto488 (not stated | moth) (UniProt P04230); assay: single molecule fluorescence tracking (TIRF); pMHC (Atto488 on the peptide) tethered by His tags to a Ni-NTA supported lipid bilayer with ICAM1-TagBFP; live primary T cell blasts added; 500 ms exposure, 1-10 s time lapse; dwell time of the slow-moving pMHC corrected for photobleaching; 37°C, imaging buffer; also at 100 molecules/µm^2 and with Latrunculin A
[3] = target: phosphorylated ITAM domains on the cytoplasmic side of TCR engaged with pMHC (TCR complex, 10 ITAM domains) (mouse (endogenous in primary T cells)); assay: two-color single molecule fluorescence tracking (TIRF); ZAP70-EGFP intensity integrated over a 315 nm square centred on each pMHC:TCR complex in live T cells; change-point analysis; intensity calibrated with single ZAP70-EGFP molecules of the same cell; dwell times not corrected for photobleaching
5c.c7 TCR = assay: single molecule tracking of agonist pMHC:TCR dwell times in hybrid live T cell-supported membrane junctions; type: binding, mouse; settings: 5c.c7 T cells, 37 °C, compared with same-day control
Text: (§1) We probe agonist pMHC:TCR complex dynamics in hybrid live cell—supported membrane junctions([Grakoui et al., 1999]) (Figure 1A). The supported membrane is functionalized with MHC (IE^k) and intercellular adhesion molecule-1 fusion with a blue fluorescent protein (ICAM1-TagBFP), both linked to the membrane via C-terminal poly-His tag binding to Ni-chelating lipids ([Nye and Groves, 2008]). The MHC is loaded with peptide (moth cytochrome c [MCC] agonist or null), which is covalently coupled in a 1:1 stoichiometry (verified by HPLC) to the photostable fluorophores Atto647N or Atto488 using maleimide-thiol chemistry. […]
(§2) Since the slow-moving pMHC can be clearly resolved from the fast moving component, the lifetime of molecules in this bound state is directly observable. […] Unbinding and photobleaching are indistinguishable in fluorescence methods such as this. […]
(§3) TIRF experiments were performed on an inverted microscope (Nikon Eclipse Ti; Technical Instruments, Burlingame, CA) using a custom-built laser launch with 488 nm (Sapphire HP; Coherent Inc., Santa Clara, CA) and 640 nm (Cube; Coherent Inc.) diode lasers, as described previously ([Smith et al., 2011]). Laser powers measured at the sample were 0.8 mW (640 nm) and 0.5 mW (488 nm) for 500 ms exposures and 4.4 mW (640 nm) for 17.5 ms exposures. […]

AND TCR = assay: as above; type: binding, mouse; settings: AND T cells, 37 °C, compared with same-day control
Text: as §1, §2, §3

AND TCR gave a stoichiometry N [1] of 1 and a mean dwell time 〈τoff〉 [2] of 53.8 s.

“enhanced green fluorescent protein fused to CD3 zeta-chain-associated protein of 70 kDa (Zap70-EGFP) (from UniProt P43404 1-618) (enzyme)” showed a ZAP70 molecules (EGFP-tagged and endogenous) per feature (ZAP70 molecules per feature) [3] of 6, a molecular binding dwell time [3] of 12 to 107 s and a stoichiometry N (ZAP70-EGFP per feature) [3] of 2.9.

With C/C1=C/C(=O)O[C@@H]2C[C@@H](CC[C@H](C)/C=C\C=C\CC1)O[C@@](O)([C@@H]1CSC(=O)N1)C2 [Latrunculin A] the “effect of cytoskeleton disruption on agonist pMHC binding kinetics” value (5c.c7 TCR) was “no significant effect” and the “effect of cytoskeleton disruption on ⟨τoff⟩ of agonist pMHC” value (AND TCR) was “moderately increases”.
